We go through one substance from PMC3903627.

This assay concerns the target Luciferase-ArgBP2 P1 and EYFP-ArgBP2 P1 (BRET pair). Nature of the assay: BRET. The note with it: HEK293T cells, one representative experiment, read off a plot. (In general: In BRET a luciferase serves as donor, and the signal depends on an acceptor being close.)

In the case of “Luciferase-ArgBP2 WT and EYFP-ArgBP2 WT (BRET pair) P497A; P500A”, the response came out at 190 mBu (0.10 µg YFP fused protein, parent: est. 510); 310 mBu (0.20 µg YFP fused protein, parent: est. 670); 390 mBu (0.30 µg YFP fused protein, parent: est. 740); 490 mBu (0.40 µg YFP fused protein, parent: est. 790); 570 mBu (0.50 µg YFP fused protein, parent: est. 790).
